Measured values published in patent US20260242735A1 (UNIVERSIT T BASEL, published 2026).

How the values were obtained:
[1] = target: human CD33 variant Y50V (human, UniProt P20138 18-364); assay: flow cytometry, IgG on cells expressing the mutant
[2] = target: human CD33 variant Y50D (human, UniProt P20138 18-364); assay: flow cytometry, IgG on cells expressing the mutant
[3] = target: human CD33 variant I47W (human, UniProt P20138 18-364); assay: flow cytometry, IgG on cells expressing the mutant
[4] = target: human CD33 variant M120V (human, UniProt P20138 18-364); assay: flow cytometry, IgG on cells expressing the mutant
Chain of human CD33 variant M120V (P20138 18-364 M120V limits assumed): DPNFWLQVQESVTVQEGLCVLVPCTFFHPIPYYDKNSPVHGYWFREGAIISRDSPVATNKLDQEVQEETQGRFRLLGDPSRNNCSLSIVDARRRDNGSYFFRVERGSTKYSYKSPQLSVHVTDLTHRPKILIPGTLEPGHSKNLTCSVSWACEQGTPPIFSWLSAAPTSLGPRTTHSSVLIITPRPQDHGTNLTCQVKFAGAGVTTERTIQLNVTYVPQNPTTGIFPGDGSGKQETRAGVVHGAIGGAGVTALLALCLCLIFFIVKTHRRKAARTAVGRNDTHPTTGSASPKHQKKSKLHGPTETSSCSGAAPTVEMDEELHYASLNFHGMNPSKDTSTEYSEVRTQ

[5] = target: human CD33 variant I47N (human, UniProt P20138 18-364); assay: flow cytometry, IgG on cells expressing the mutant
[6] = target: human CD33 variant Y50G (human, UniProt P20138 18-364); assay: flow cytometry, IgG on cells expressing the mutant
Chain of human CD33 variant Y50G (P20138 18-364 Y50G limits assumed): as the sequence (P20138 18-364 M120V limits assumed) above, with Y33G, V103M counted along it

[7] = target: human CD33 variant Y49V (human, UniProt P20138 18-364); assay: flow cytometry, IgG on cells expressing the mutant
Chain of human CD33 variant Y49V (P20138 18-364 Y49V limits assumed): as the sequence (P20138 18-364 M120V limits assumed) above, with Y32V, V103M counted along it

[8] = target: human CD33 variant Y50Q (human, UniProt P20138 18-364); assay: flow cytometry, IgG on cells expressing the mutant
Chain of human CD33 variant Y50Q (P20138 18-364 Y50Q limits assumed): as the sequence (P20138 18-364 M120V limits assumed) above, with Y33Q, V103M counted along it

[9] = target: human CD33 variant I47R (human, UniProt P20138 18-364); assay: flow cytometry, IgG on cells expressing the mutant
Chain of human CD33 variant I47R (P20138 18-364 I47R limits assumed): as the sequence (P20138 18-364 M120V limits assumed) above, with I30R, V103M counted along it

[10] = target: human CD33 variant R122E (human, UniProt P20138 18-364); assay: flow cytometry, IgG on cells expressing the mutant
[11] = target: human CD33 variant K52S (human, UniProt P20138 18-364); assay: flow cytometry, IgG on cells expressing the mutant
Chain of human CD33 variant K52S (P20138 18-364 K52S limits assumed): as the sequence (P20138 18-364 M120V limits assumed) above, with K35S, V103M counted along it

[12] = target: human CD33 variant Y49H (human, UniProt P20138 18-364); assay: flow cytometry, IgG on cells expressing the mutant
[13] = target: human CD33 variant D51K (human, UniProt P20138 18-364); assay: flow cytometry, IgG on cells expressing the mutant
Chain of human CD33 variant D51K (P20138 18-364 D51K limits assumed): as the sequence (P20138 18-364 M120V limits assumed) above, with D34K, V103M counted along it

[14] = target: human CD33 variant Y127R (human, UniProt P20138 18-364); assay: flow cytometry, IgG on cells expressing the mutant
Chain of human CD33 variant Y127R (P20138 18-364 Y127R limits assumed): as the sequence (P20138 18-364 M120V limits assumed) above, with V103M, Y110R counted along it

[15] = target: human CD33 variant P48S (human, UniProt P20138 18-364); assay: flow cytometry, IgG on cells expressing the mutant
[16] = target: human CD33 variant K52I (human, UniProt P20138 18-364); assay: flow cytometry, IgG on cells expressing the mutant
Chain of human CD33 variant K52I (P20138 18-364 K52I limits assumed): as the sequence (P20138 18-364 M120V limits assumed) above, with K35I, V103M counted along it

[17] = target: human CD33 variant Y49L (human, UniProt P20138 18-364); assay: flow cytometry, IgG on cells expressing the mutant
[18] = target: human CD33 variant Y50N (human, UniProt P20138 18-364); assay: flow cytometry, IgG on cells expressing the mutant
Chain of human CD33 variant Y50N (P20138 18-364 Y50N limits assumed): as the sequence (P20138 18-364 M120V limits assumed) above, with Y33N, V103M counted along it

[19] = target: human CD33 variant V56R (human, UniProt P20138 18-364); assay: flow cytometry, IgG on cells expressing the mutant
Chain of human CD33 variant V56R (P20138 18-364 V56R limits assumed): as the sequence (P20138 18-364 M120V limits assumed) above, with V39R, V103M counted along it

[20] = target: human CD33 variant Y127E (human, UniProt P20138 18-364); assay: flow cytometry, IgG on cells expressing the mutant
Chain of human CD33 variant Y127E (P20138 18-364 Y127E limits assumed): as the sequence (P20138 18-364 M120V limits assumed) above, with V103M, Y110E counted along it

[21] = target: human CD33 variant R122T (human, UniProt P20138 18-364); assay: flow cytometry, IgG on cells expressing the mutant
Chain of human CD33 variant R122T (P20138 18-364 R122T limits assumed): as the sequence (P20138 18-364 M120V limits assumed) above, with V103M, R105T counted along it

[22] = target: human CD33 extracellular region F21I (human, UniProt P20138 22-259); assay: BLI Octet, IgG captured on AHC, CD33 analyte;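 also: CD33 variants and wild type run as analyte at 5, 50 and 500 nM, 700 s association then 1200 s dissociation, buffer-only reference subtracted, global 1:1 fit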
Protocol: (§1) Human CD33 wt and variants, were used as analyte at 3 different concentrations (500, 50 and 5 nM). Association of the analyte to the antibodies was monitored for 700 s and dissociation of the analyte from the antibodies was monitored for 1200 s. Reference subtraction was performed against buffer only wells. AHC tips were regenerated using 10 mM Glycine-HCl pH 1.7. Data were analyzed with Octet Data Analysis software HT 12.0. Data were fitted to a 1:1 binding model. Kinetic rates ka and kd and response signal were globally fitted.

[23] = target: human CD33 extracellular region F21S (human, UniProt P20138 22-259); assay: BLI Octet, IgG captured on AHC, CD33 analyte;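 also: CD33 variants and wild type run as analyte at 5, 50 and 500 nM, 700 s association then 1200 s dissociation, buffer-only reference subtracted, global 1:1 fit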
Protocol: as §1

[24] = target: T1, human CD33 extracellular region, wild type (human, UniProt P20138 18-259); assay: BLI Octet, IgG captured on AHC, CD33 analyte;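 also: CD33 variants and wild type run as analyte at 5, 50 and 500 nM, 700 s association then 1200 s dissociation, buffer-only reference subtracted, global 1:1 fit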
T1 construct: also called WT; CD33 wt
Protocol: as §1

[25] = target: human CD33 extracellular region F43S (human, UniProt P20138 18-259); assay: BLI Octet, IgG captured on AHC, CD33 analyte;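 also: CD33 variants and wild type run as analyte at 5, 50 and 500 nM, 700 s association then 1200 s dissociation, buffer-only reference subtracted, global 1:1 fit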
Protocol: as §1

[26] = target: human CD33 extracellular region Y50H (human, UniProt P20138 18-259); assay: BLI Octet, IgG captured on AHC, CD33 analyte
Protocol: as §1

[27] = target: human CD33 extracellular region Y50L (human, UniProt P20138 18-259); assay: BLI Octet, IgG captured on AHC, CD33 analyte
Protocol: as §1

[28] = target: human CD33 extracellular region Y50R (human, UniProt P20138 18-259); assay: BLI Octet, IgG captured on AHC, CD33 analyte
Protocol: as §1

[29] = target: human CD33 extracellular region P48D (human, UniProt P20138 18-259); assay: BLI Octet, IgG captured on AHC, CD33 analyte
Protocol: as §1

[30] = target: human CD33 extracellular region F44S (human, UniProt P20138 18-259); assay: BLI Octet, IgG captured on AHC, CD33 analyte
Protocol: as §1

[31] = target: human CD33 extracellular region P48F (human, UniProt P20138 18-259); assay: BLI Octet, IgG captured on AHC, CD33 analyte
Protocol: as §1

[32] = target: human CD33 extracellular region F21S_W22R (human, UniProt P20138 23-259); assay: BLI Octet, IgG captured on AHC, CD33 analyte
Protocol: as §1

[33] = target: human CD33 extracellular region N20K (human, UniProt P20138 21-259); assay: BLI Octet, IgG captured on AHC, CD33 analyte
Protocol: as §1

[34] = target: human CD33 extracellular region N20G (human, UniProt P20138 21-259); assay: BLI Octet, IgG captured on AHC, CD33 analyte
Protocol: as §1

Chain of human CD33 variant Y50V (P20138 18-364 Y50V limits assumed): as the sequence (P20138 18-364 M120V limits assumed) above, with Y33V, V103M counted along it

| Mean % WT Binding [1] | Mean % WT Binding [2] | Mean % WT Binding [3] | Mean % WT Binding [4] | Mean % WT Binding [5] | Mean % WT Binding [6] | Mean % WT Binding [7] | Mean % WT Binding [8] | Mean % WT Binding [9] | Mean % WT Binding [10] | Mean % WT Binding [11] | Mean % WT Binding [12] | Mean % WT Binding [13] | Mean % WT Binding [14] | Mean % WT Binding [15] | Mean % WT Binding [16] | Mean % WT Binding [17] | Mean % WT Binding [18] | Mean % WT Binding [19] | Mean % WT Binding [20] | Binder | further results |
| --- | --- | --- | --- | --- | --- | --- | --- | --- | --- | --- | --- | --- | --- | --- | --- | --- | --- | --- | --- | --- | --- |
| 108 % of WT | 100 % of WT | 112 % of WT | 51.1 % of WT | 91.6 % of WT | 91.2 % of WT | 106 % of WT | 95.4 % of WT | 83.2 % of WT | 101 % of WT | 96.8 % of WT | 92.1 % of WT | 88.9 % of WT | 65.9 % of WT | 100 % of WT | 88.7 % of WT | 93.8 % of WT | 92.4 % of WT | 97.7 % of WT | 21.5 % of WT | Refmab #3 (antibody, human IgG1, V domains shown, Tested in IgG format; human IgG1 Fc silent (PG-LALA)) VH: QVQLVQSGAEVKKPGSSVKVSCKASGYTFTDYNMHWVRQAPGQGLEWIGYIYPYNGGTGYNQKFKSKATITADESTNTAYMELSSLRSEDTAVYYCARGRPAMDYWGQGTLVTVSS VL: DIQMTQSPSSLSASVGDRVTITCRASESVDNYGISFMNWFQQKPGKAPKLLIYAASNQGSGVPSRFSGSGSGTDFTLTISSLQPDDFATYYCQQSKEVPWTFGQGTKVEIK | Mean % WT Binding [21]: 103 % of WT |
|  |  |  |  |  |  |  |  |  |  |  |  |  |  |  |  |  |  |  |  | Refmab #3 (antibody, human IgG1, V domains shown) VH: QVQLVQSGAEVKKPGSSVKVSCKASGYTFTDYNMHWVRQAPGQGLEWIGYIYPYNGGTGYNQKFKSKATITADESTNTAYMELSSLRSEDTAVYYCARGRPAMDYWGQGTLVTVSS VL: DIQMTQSPSSLSASVGDRVTITCRASESVDNYGISFMNWFQQKPGKAPKLLIYAASNQGSGVPSRFSGSGSGTDFTLTISSLQPDDFATYYCQQSKEVPWTFGQGTKVEIK | % WT binding [22]: 0%; % WT binding [23]: 0%; % WT binding [24]: 100%; % WT binding [25]: 64.8%; % WT binding [26]: 111%; % WT binding [27]: 74.4%; % WT binding [28]: 70.5%; % WT binding [29]: 76.4%; % WT binding [30]: 39%; % WT binding [31]: 74.3%; % WT binding [32]: 0%; % WT binding [33]: 0%; % WT binding [34]: 0% |
| 1.7 % of WT | 0.9 % of WT | 86.8 % of WT | 100 % of WT | 74.8 % of WT | 4 % of WT | 46.9 % of WT | 3.2 % of WT | 66.2 % of WT | 79.2 % of WT | 85 % of WT | 95.1 % of WT | 42 % of WT | 116 % of WT | 0.5 % of WT | 61.9 % of WT | 110 % of WT | 2.3 % of WT | 99.4 % of WT | 104 % of WT | Refmab #4 (antibody, human IgG1, V domains shown, Tested in IgG format; human IgG1 Fc silent (PG-LALA)) VH: QVQLVQSGAEVKKPGESVKVSCKASGYTFTNYGMNWVKQAPGQGLEWMGWINTYTGEPTYADKFQGRVTMTTDTSTSTAYMEIRNLGGDDTAVYYCARWSWSDGYYVYFDYWGQGTSVTVSS VL: DIVMTQSPDSLTVSLGERTTINCKSSQSVLDSSTNKNSLAWYQQKPGQPPKLLLSWASTRESGIPDRFSGSGSGTDFTLTIDSPQPEDSATYYCQQSAHFPITFGQGTRLEIK | Mean % WT Binding [21]: 93.2 % of WT |
| 94.9 % of WT | 115 % of WT | 111 % of WT | 98.7 % of WT | 87.8 % of WT | 92.8 % of WT | 101 % of WT | 93.9 % of WT | 96.1 % of WT | 110 % of WT | 84.3 % of WT | 89.1 % of WT | 90.7 % of WT | 84 % of WT | 97.5 % of WT | 89.2 % of WT | 100 % of WT | 96.3 % of WT | 98.5 % of WT | 79.2 % of WT | Refmab #1 (antibody, human IgG1, V domains shown, Tested in IgG format; human IgG1 (Absolute Antibody hP67.6, Cat. No. Ab00283-10.0); also called hP67.6) VH: EVQLVQSGAEVKKPGSSVKVSCKASGYTITDSNIHWVRQAPGQSLEWIGYIYPYNGGTDYNQKFKNRATLTVDNPTNTAYMELSSLRSEDTAFYYCVNGNPWLAYWGQGTLVTVSS VL: DIQLTQSPSTLSASVGDRVTITCRASESLDNYGIRFLTWFQQKPGKAPKLLMYAASNQGSGVPSRFSGSGSGTEFTLTISSLQPDDFATYYCQQTKEVPWSFGQGTKVEVK | Mean % WT Binding [21]: 113 % of WT |
|  |  |  |  |  |  |  |  |  |  |  |  |  |  |  |  |  |  |  |  | Refmab #1 (antibody, human IgG1, V domains shown, also called hP67.6; Absolute Antibody Cat. No. Ab00283-10.0) VH: EVQLVQSGAEVKKPGSSVKVSCKASGYTITDSNIHWVRQAPGQSLEWIGYIYPYNGGTDYNQKFKNRATLTVDNPTNTAYMELSSLRSEDTAFYYCVNGNPWLAYWGQGTLVTVSS VL: DIQLTQSPSTLSASVGDRVTITCRASESLDNYGIRFLTWFQQKPGKAPKLLMYAASNQGSGVPSRFSGSGSGTEFTLTISSLQPDDFATYYCQQTKEVPWSFGQGTKVEVK | % WT binding [22]: 0%; % WT binding [23]: 0%; % WT binding [24]: 100%; % WT binding [25]: 104%; % WT binding [26]: 104%; % WT binding [27]: 76.1%; % WT binding [28]: 73.3%; % WT binding [29]: 71.9%; % WT binding [30]: 63.9%; % WT binding [31]: 76.2%; % WT binding [32]: 0%; % WT binding [33]: 0%; % WT binding [34]: 0% |
| 126 % of WT | 112 % of WT | 0.6 % of WT | 95.5 % of WT | 0.4 % of WT | 104 % of WT | 90.4 % of WT | 113 % of WT | 1.6 % of WT | 0.6 % of WT | 113 % of WT | 17.2 % of WT | 2.7 % of WT | 110 % of WT | 92.1 % of WT | 86.8 % of WT | 108 % of WT | 108 % of WT | 107 % of WT | 105 % of WT | Refmab #2 (antibody, human IgG1, V domains shown, Tested in IgG format; human IgG1 Fc silent (PG-LALA)) VH: QVQLVQSGAEVKKPGSSVKVSCKASGGTFSDYAISWVRQAPGQGLEWMGRIIPILGVADYAQKFQGRVTITADKSTRTAYMELSSLRSEDTAVYYCARNWADAFDIWGQGTMVTVSS VL: DIQLTQSPSSLSASVGDRVTITCRASQGISSVLAWYQQKPGKAPKLLIYDASSLESGVPSRFSGSGSGTDFTLTISSLQPEDFATYYCQQFDSSITFGQGTKLEIK | Mean % WT Binding [21]: 1.5 % of WT |
